Values joined by “and” are separate entries in the source; they are usually repeats but may differ in a detail not shown here. Equal values may be shown once.
Experiments:
[1] = target: bovine lactoferrin purified from bovine colostrum as the high molecular weight biomacromolecular complex (HMW-bLf) (bovine); experiment: SDS-PAGE and Western blot; 3 mg mL^-1 HMW-bLf in 50 mM Tris HCl pH 7.5 with 1 M NaCl, 1 day at 37°C; gradient SDS-PAGE (reducing gel), blot probed with goat anti-bLf
[2] = target: native monomeric bovine lactoferrin (NM-bLf) (bovine); experiment: SDS-PAGE; NM-bLf stored at high concentration; denaturing SDS-PAGE; data not shown

| stoichiometry N [1] | stoichiometry N [2] | Substance |
| --- | --- | --- |
| 2 | – | bovine lactoferrin purified from bovine colostrum as the high molecular weight biomacromolecular complex (HMW-bLf) (natural protein) |
| – | 3 and 2 | native monomeric bovine lactoferrin (NM-bLf) (natural protein) |

— article PMC4164354
